Measurements published in patent US20110118131A1 (published 2011).
Substitutions are numbered along the chain they refer to. In names and notes the source's numbering stands.

B1: XPA23 heavy chain D106G (Fab, V domains shown)
VH: EVQLLESGGGLVQPGGSLRLSCAASGFTFSKYFMFWVRQAPGKGLEWVSVISPSGGMTRYADSVKGRFTISRDNSKNTLYLQMNSLRAEDTAVYYCARVGYGGNSGYWGQGTLVTVSS
VL: DIQMTQSPSSVSASVGDRLTIICRASQDINRWLAWYQQTPGNAPKLLIHSATSLQSGVPSRFSGSGSGTDFTLTINSLQPEDFATYYCQQADSFPLTFGGGTKVEIK
notes: Fab, periplasmic extract; also called C5A D106G
B2: XPA23 light chain W32H (Fab, V domains shown)
VH: B1 VH with G106D
VL: B1 VL with W32H
B3: XPA23 light chain T52S (Fab, V domains shown)
VH: B1 VH with G106D
VL: B1 VL with T52S
B4: XPA23 light chain T52L (Fab, V domains shown)
VH: B1 VH with G106D
VL: B1 VL with T52L
B5: XPA23 light chain T52P (Fab, V domains shown)
VH: B1 VH with G106D
VL: B1 VL with T52P
B6: XPA23 light chain W32D (Fab, V domains shown)
VH: B1 VH with G106D
VL: B1 VL with W32D
B7: XPA23 light chain W32N (Fab, V domains shown)
VH: B1 VH with G106D
VL: B1 VL with W32N
B8: XPA23 light chain W32P (Fab, V domains shown)
VH: B1 VH with G106D
VL: B1 VL with W32P
B9: XPA23 light chain T52V (Fab, V domains shown)
VH: B1 VH with G106D
VL: B1 VL with T52V
B10: XPA23 light chain W32Q (Fab, V domains shown)
VH: B1 VH with G106D
VL: B1 VL with W32Q
B11: XPA23 light chain W32I (Fab, V domains shown)
VH: B1 VH with G106D
VL: B1 VL with W32I
B12: XPA23 light chain T52R (Fab, V domains shown)
VH: B1 VH with G106D
VL: B1 VL with T52R
B13: XPA23 light chain T52H (Fab, V domains shown)
VH: B1 VH with G106D
VL: B1 VL with T52H
B14: XPA23 light chain T52N (Fab, V domains shown)
VH: B1 VH with G106D
VL: B1 VL with T52N
B15: XPA23 light chain W32T (Fab, V domains shown)
VH: B1 VH with G106D
VL: B1 VL with W32T
B16: XPA23 heavy chain F33A (Fab, V domains shown)
VH: B1 VH with F33A, G106D
VL: B1 VL
notes: Fab, periplasmic extract; also called C5A F33A
B17: XPA23 light chain T52I (Fab, V domains shown)
VH: B1 VH with G106D
VL: B1 VL with T52I
B18: XPA23 light chain W32V (Fab, V domains shown)
VH: B1 VH with G106D
VL: B1 VL with W32V
B19: XPA23 light chain W32G (Fab, V domains shown)
VH: B1 VH with G106D
VL: B1 VL with W32G
B20: XPA23 light chain T52Y (Fab, V domains shown)
VH: B1 VH with G106D
VL: B1 VL with T52Y
B21: XPA23 light chain W32A (Fab, V domains shown)
VH: B1 VH with G106D
VL: B1 VL with W32A
B22: XPA23 light chain W32E (Fab, V domains shown)
VH: B1 VH with G106D
VL: B1 VL with W32E
B23: XPA23 light chain T52W (Fab, V domains shown)
VH: B1 VH with G106D
VL: B1 VL with T52W
B24: XPA23 light chain T52Q (Fab, V domains shown)
VH: B1 VH with G106D
VL: B1 VL with T52Q
B25: XPA23 light chain W32R (Fab, V domains shown)
VH: B1 VH with G106D
VL: B1 VL with W32R
B26: XPA23 light chain W32L (Fab, V domains shown)
VH: B1 VH with G106D
VL: B1 VL with W32L
B27: XPA23 light chain T52K (Fab, V domains shown)
VH: B1 VH with G106D
VL: B1 VL with T52K
B28: XPA23 light chain W32K (Fab, V domains shown)
VH: B1 VH with G106D
VL: B1 VL with W32K
B29: XPA23 heavy chain F33G (Fab, V domains shown)
VH: B1 VH with F33G, G106D
VL: B1 VL
notes: Fab, periplasmic extract; also called C5A F33G
B30: XPA23 light chain W32S (Fab, V domains shown)
VH: B1 VH with G106D
VL: B1 VL with W32S
B31: XPA23 light chain W32Y (Fab, V domains shown)
VH: B1 VH with G106D
VL: B1 VL with W32Y
B32: XPA23 light chain W32F (Fab, V domains shown)
VH: B1 VH with G106D
VL: B1 VL with W32F

Key:
IL-1β [1] = molecular target: T1, IL-1β (UniProt P01584 117-269); assay: Biacore, Fab periplasmic extract
T1 construct: Antigen of XPA23

IL-1β [2] = molecular target: T2, IL-1β (UniProt P01584 117-269); assay: Biacore, periplasmic extract
T2 construct: Antigen immobilised on the Biacore chip

| Binder | binding result (IL-1β [2]) | fold difference in affinity vs original (IL-1β [2]) [fold] | also measured |
| --- | --- | --- | --- |
| B1 |  |  | fold difference in affinity against the original (IL-1β [1]): 0.03 fold |
| B2 | no binding |  |  |
| B3 |  | 0.78 |  |
| B4 |  | 0.78 |  |
| B5 |  | 1.08 |  |
| B6 | no binding |  |  |
| B7 | no binding |  |  |
| B8 | no binding |  |  |
| B9 |  | 0.82 |  |
| B10 | no binding |  |  |
| B11 | no binding |  |  |
| B12 |  | 3.37 |  |
| B13 |  | 0.91 |  |
| B14 |  | 0.83 |  |
| B15 | no binding |  |  |
| B16 |  |  | fold difference in affinity against the original (IL-1β [1]): 0.75 fold |

| Binder | binding result (IL-1β [2]) | fold difference in affinity vs original (IL-1β [2]) [fold] | also measured |
| --- | --- | --- | --- |
| B17 |  | 0.8 |  |
| B18 | no binding |  |  |
| B19 | no binding |  |  |
| B20 |  | 1.01 |  |
| B21 | no binding |  |  |
| B22 | no binding |  |  |
| B23 |  | 0.87 |  |
| B24 |  | 0.83 |  |
| B25 | no binding |  |  |
| B26 | no binding |  |  |
| B27 |  | 3.23 |  |
| B28 | no binding |  |  |
| B29 |  |  | fold difference in affinity against the original (IL-1β [1]): 0.76 fold |
| B30 | no binding |  |  |
| B31 | no binding |  |  |
| B32 | no binding |  |  |
